± gives the standard deviation of the averaged measurements.
These sequences were tested on Saccharomyces cerevisiae (assay: protein stability index of tFT-peptide fusion (C-terminal peptide) (PSI (0-1 scale)); higher = more stable (slower turnover)). Settings: genetic background: wild type; temperature: 30 C.
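Note: PSI is a weighted mean of sequencing reads over stability bins, variants kept only with over 10 reads, mCherry proximal and sfGFP distal, peptide attached via GGGS linker.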

Sequence | protein stability index
SLHPPPPPFRLS | 0.753 ± 0.014
SLHSTPRPPAPG | 0.705 ± 0.063
SLILRHLSPPTP | 0.762 ± 0.15
SLIPLRLTLTRH | 0.739 ± 0.023
SLKRRWPYPNRP | 0.681 ± 0.011
SLLLMLPFPLPG | 0.618 ± 0.028
SLLLPPRPPSPS | 0.672 ± 0.017
SLLLPTPPPFRP | 0.644 ± 0.028
SLLLSRPLSTSH | 0.6945 ± 0.0031
SLLTSSPLPSPP | 0.696 ± 0.043
SLPAFPPNTFMP | 0.7 ± 0.017
SLPGVRVPRVGR | 0.715 ± 0.059
SLPHSFIYYPLP | 0.755 ± 0.037
SLPLPSPRPILR | 0.64 ± 0.0092
SLPLVLHGHRLY | 0.672 ± 0.027
SLPPAHPPPPRP | 0.693 ± 0.026
SLPPFPVTSRHP | 0.691 ± 0.011
SLPPSSPLPPVS | 0.665 ± 0.035
SLPRPPPPASTP | 0.623 ± 0.0068
SLPSPSPPSHPL | 0.705 ± 0.033
SLPSSVAFLFPR | 0.802 ± 0.17
SLQTRANTGLWT | 0.689 ± 0.034
SLREIIRKSLGL | 0.677 ± 0.022

Sequence | protein stability index
SLRILFDLRISL | 0.605 ± 0.031
SLRLFSPILSSL | 0.684 ± 0.011
SLRSSLFSPHHC | 0.649 ± 0.044
SLRSSRSRIKKG | 0.624 ± 0.086
SLRWVHVRGVLQ | 0.702 ± 0.013
SLSDYKAYSKTI | 0.65 ± 0.013
SLSGPDIRLKPF | 0.673 ± 0.046
SLSGPRCFLHSP | 0.681 ± 0.039
SLVLPPRPFPPF | 0.746 ± 0.058
SLVLPSFSLFSR | 0.728 ± 0.028
SLVLSFPLLSLP | 0.697 ± 0.025
SLYPPPAPRASP | 0.773 ± 0.036
SLYVRRCKEASK | 0.6894 ± 0.0023
SMSRSPPPSPPL | 0.669 ± 0.01
SMWKQIRVYGLW | 0.636 ± 0.028
SNHIAPAFKIKQ | 0.678 ± 0.0085
SNHTIIGNVVHF | 0.7131 ± 0.0056
SNHYYFILSHFA | 0.661 ± 0.0093
SNPLRPHLPPHF | 0.714 ± 0.054
SNTKLIGGFFRD | 0.646 ± 0.1
SPALSPDPSPSP | 0.704 ± 0.037
SPALVRLSLPRP | 0.86 ± 0.14
SPAPPPGVPPSR | 0.687 ± 0.03

Sequence | protein stability index
SPDCSLSPSVSG | 0.684 ± 0.029
SPFCGVRFRFCY | 0.632 ± 0.064
SPFGFPPPSPPA | 0.6843 ± 0.003
SPFPLSSLRPLP | 0.7552 ± 0.0022
SPGPSPPSPIGP | 0.61967 ± 0.00044
SPGTFLSLRMSI | 0.703 ± 0.015
SPHLPPLPDPSP | 0.576 ± 0.0069
SPISATISPSFR | 0.728 ± 0.018
SPIVLTYHYLCR | 0.666 ± 0.0087
SPLGPLGPPSET | 0.693 ± 0.052
SPLLYPPPSTSI | 0.715 ± 0.042
SPLPLFSPCPPP | 0.693 ± 0.014
SPLPPPSLPRPP | 0.641 ± 0.017
SPLRHLPGPSFP | 0.696 ± 0.012
SPLSLPTRSCLL | 0.7075 ± 0.0066
SPLTSSSLPPRT | 0.691 ± 0.032
SPPAPACTSYSL | 0.7018 ± 0.0019
SPPATPWPPDLR | 0.627 ± 0.051
SPPFLPCLFHAS | 0.687 ± 0.048
SPPFLPVPASSL | 0.709 ± 0.027
SPPGYPGNPSPL | 0.662 ± 0.021
SPPHSLSSSCSL | 0.811 ± 0.05
SPPLFCSPPISP | 0.719 ± 0.043

Sequence | protein stability index
SPPLHPPPPFPL | 0.769 ± 0.047
SPPLPACSPPLA | 0.715 ± 0.035
SPPLPHLPTPTP | 0.603 ± 0.14
SPPLPPLPSVAF | 0.637 ± 0.16
SPPLPPPARLPA | 0.615 ± 0.019
SPPLPRLSPLPN | 0.6863 ± 0.0012
SPPPAPSHPPSP | 0.73 ± 0.05
SPPPGSRTFAFR | 0.697 ± 0.042
SPPPIVPPPSPP | 0.662 ± 0.12
SPPPLCCPPLAP | 0.728 ± 0.023
SPPPLLLPLSPP | 0.727 ± 0.047
SPPPLNTFPPLP | 0.691 ± 0.025
SPPPLRFPPPPP | 0.763 ± 0.13
SPPPNPPRPSSR | 0.768 ± 0.014
SPPPPASPPAPP | 0.648 ± 0.062
SPPPPHVPLSPS | 0.712 ± 0.032
SPPPPPALPEYQ | 0.6877 ± 0.0012
SPPPPPPPPPPL | 0.757 ± 0.041
SPPPPPPRPLTP | 0.672 ± 0.027
SPPPPSPRFPSP | 0.678 ± 0.017
SPPPPTPLPPPP | 0.6757 ± 0.0047
SPPPPVPSAGPL | 0.7 ± 0.042
SPPPSPPPPLPP | 0.5649 ± 0.0049

Sequence | protein stability index
SPPRHPPPASPA | 0.7128 ± 0.0035
SPPSPSTPPARP | 0.747 ± 0.15
SPPSSPHPPPRT | 0.693 ± 0.01
SPPVPLPYLASP | 0.663 ± 0.061
SPQPSLPFLPPL | 0.668 ± 0.026
SPRPHRHLPFRP | 0.709 ± 0.0072
SPRPIKCRPLLI | 0.62 ± 0.018
SPRPPPLIIAST | 0.664 ± 0.031
SPRPPSLPYAPP | 0.701 ± 0.019
SPRPTRCGQNSM | 0.6897 ± 0.0053
SPRPYFSLVLFF | 0.539 ± 0.0032
SPRRSLPPAGFT | 0.71 ± 0.017
SPRVRVYLTDTG | 0.7306 ± 0.0042
SPSCFFIFALPC | 0.605 ± 0.037
SPSCSLLCPLPR | 0.72 ± 0.028
SPSIRFILWGPI | 0.678 ± 0.041
SPSLSPSPPSPS | 0.6699 ± 0.0039
SPSPLPTTPPTC | 0.641 ± 0.0077
SPSPPHPLTTTL | 0.711 ± 0.075
SPSPPLASPPPL | 0.686 ± 0.016
SPSRPTPNTIGP | 0.615 ± 0.031
SPSSFVTFVVLE | 0.652 ± 0.098
SPSSPPPPPPPA | 0.833 ± 0.033

Sequence | protein stability index
SPSTRWPTVQTR | 0.662 ± 0.0098
SPTAPPPRPFPP | 0.679 ± 0.042
SPTPPRMPLSLP | 0.677 ± 0.024
SPTRFLPVPTPF | 0.75 ± 0.052
SPTSTILKSYTR | 0.659 ± 0.086
SPVPRPGTTRRP | 0.721 ± 0.031
SPVQHPKHIQPG | 0.656 ± 0.008
SPVRRGRCRLSG | 0.728 ± 0.1
SQFGLGCCQRST | 0.723 ± 0.069
SQGAGKCIIIAA | 0.561 ± 0.015
SQGSTLRGIEEP | 0.661 ± 0.048
SRAARLLPKLLI | 0.589 ± 0.055
SRAPRDVFSPPM | 0.72 ± 0.019
SRASPPCSLLSS | 0.696 ± 0.051
SRCRASMPPLRA | 0.684 ± 0.034
SRERRPKVFILR | 0.669 ± 0.027
SRETRRRENPAK | 0.677 ± 0.19
SRFAAGSRVLFL | 0.758 ± 0.044
SRFSRLHPAFPV | 0.759 ± 0.014
SRGLPRLLCPPP | 0.747 ± 0.025
SRGLVRGPMSGR | 0.661 ± 0.053
SRGRSFFAGVGG | 0.722 ± 0.042
SRGVSRGGGEVF | 0.651 ± 0.027

Sequence | protein stability index
SRGWCGRVVWGK | 0.729 ± 0.01
SRHFPLGTVHVP | 0.756 ± 0.065
SRHRVGLPIQIF | 0.526 ± 0.022
SRKIRTTLQESK | 0.7219 ± 0.0071
SRLGVGGGLCSW | 0.714 ± 0.11
SRLKAPADTDPN | 0.7 ± 0.015
SRLSPPFPLFSL | 0.505 ± 0.036
SRMRRGCTGCEC | 0.671 ± 0.061
SRPPLLLLSSGA | 0.6583 ± 0.0059
SRPRLSDLFPPP | 0.706 ± 0.11
SRRVSVSTSWNP | 0.718 ± 0.014
SRSCCPGVRVRF | 0.709 ± 0.03
SRSCRHGELKFA | 0.718 ± 0.0097
SRSGASLRAARG | 0.722 ± 0.043
SRSGVSTRGVPC | 0.709 ± 0.0073
SRSWLPPVFPRV | 0.807 ± 0.059
SRTLLRVSHLSL | 0.699 ± 0.02
SRVAEIERVQWL | 0.655 ± 0.038
SRVQYVLDRSVF | 0.649 ± 0.0099
SRVTGPGRADGT | 0.691 ± 0.011
SRVTVLGGWRRG | 0.701 ± 0.034
SRWFEFSFLSQV | 0.707 ± 0.049

— the supplement of paper PMC10724198
